Measured values as given in patent publication US20230242902A1, “A HIGHLY ERROR-PRONE […] R[…] FOR TARGETED CONTINUOUS EVOLUTION IN VIVO” (The Regents of the University of California, priority 2017, published 2023).
Positions count from the first letter of the chain named. Names and notes keep the numbering of the source.

B1: T679A: TP-DNAP1 variant (protein)
chain: MDYKDKALNDLRNVYADFDSLPLDFRQILIKDRATLLQKEDVEKKILERQEDAKKYAEYLKQSEIPERISLPNIKRHKGVSISFEETSEDMVLEPRPFIFDGLNIRCFRRETIFSLKNKILNMVKESSSFKNVSRQSVSFMYFKIFNKGKVIASTKSVNIYEDKIDERLEDLCNNFDDVLKKIIDVTYGYESLFVSETYSYVIFYAKSIYFPQPRCVNNWGNNIPNILTFDSFKLFTANKNNVSCIKQCSRFLWQKDFNTLEEMIEYKNGNICIVTPQLHINDVRDIKSFNDIRLYSESPIKTFSVIDNTITYLFYFKEHLGVIFNITKSRHDRRVTKFSPLSKFSDVKNITVCFDIESYFDPEKESNQVNIPFICCASIIYNKVIGNIVDFEGRDCVAQMIEYVVDICGELNISSVELIAHNGGGYDFHYILSSMYNPAAIKNILIRNNSFISFNFAHDGVKFSVKDSYSFLLCSLANASKAFLNEETFKKTDFPHHDLKTADDLYKVYKEWSSVNTEINHVVEKEKLLITSEHIVNFTKNDKSKTLIEWSKDYCRNDVLVLSKVWLEFKNAVEDIFNCELVDQTMTLAGLSYKLFQANMPFDVELRHPNKEDYFNMREALIGGRCISVNGIYKDVLCLDVKSLYPASMAFYDQPYGSFKRVSSRPKDELGIYYVRVAPNRNNKSNFFPIRSHNKITYNNFEESTYIAWYTNVDIDIGLSEGHNIEYIPFDSYGNIGYSWSKKGKIFEKYIKDVLYKLKIKYEKQNNKVKRNVIKIIMNSLWGKFAQKWVNFEYFIKSEDDIDFESEEAYKIWDTDFMLIKKIKESTYSSKPIQNGVFTLSWARYHMKSIWDAGAKEGAECIYSDTDSIFVHKEHFKKNAKFMLNGLKVPIIGSEVGQLELECEFDKLLCAGKKQYMGFYTYFQDGKPCIKEKKRFKGIPSNYIIPELYAHLLSGADKEAKIQFLKFRREWGSVKGYIENKTVKAT
B2: K696T: TP-DNAP1 variant (protein)
chain: B1 chain with A679T, K696T
B3: N684D: TP-DNAP1 variant (protein)
chain: B1 chain with A679T, N684D
B4: R692C: TP-DNAP1 variant (protein)
chain: B1 chain with A679T, R692C
B5: R692W: TP-DNAP1 variant (protein)
chain: B1 chain with A679T, R692W
B6: H694I: TP-DNAP1 variant (protein)
chain: B1 chain with A679T, H694I
B7: N695S: TP-DNAP1 variant (protein)
chain: B1 chain with A679T, N695S
B8: S693Q: TP-DNAP1 variant (protein)
chain: B1 chain with A679T, S693Q
B9: R692F: TP-DNAP1 variant (protein)
chain: B1 chain with A679T, R692F
B10: R692I: TP-DNAP1 variant (protein)
chain: B1 chain with A679T, R692I
B11: R692K: TP-DNAP1 variant (protein)
chain: B1 chain with A679T, R692K
B12: K696S, E704V: TP-DNAP1 variant (protein)
chain: B1 chain with A679T, K696S, E704V
B13: H694T: TP-DNAP1 variant (protein)
chain: B1 chain with A679T, H694T
B14: N681Q, R692I: TP-DNAP1 variant (protein)
chain: B1 chain with A679T, N681Q, R692I
B15: R682D: TP-DNAP1 variant (protein)
chain: B1 chain with A679T, R682D
B16: K696M: TP-DNAP1 variant (protein)
chain: B1 chain with A679T, K696M
B17: E298R: TP-DNAP1 variant (protein)
chain: B1 chain with E298R, A679T
B18: S693R: TP-DNAP1 variant (protein)
chain: B1 chain with A679T, S693R
B19: T679R: TP-DNAP1 variant (protein)
chain: B1 chain with A679R
B20: K696G: TP-DNAP1 variant (protein)
chain: B1 chain with A679T, K696G
B21: T679E: TP-DNAP1 variant (protein)
chain: B1 chain with A679E
B22: N695F: TP-DNAP1 variant (protein)
chain: B1 chain with A679T, N695F
B23: K696Y: TP-DNAP1 variant (protein)
chain: B1 chain with A679T, K696Y
B24: N695Q: TP-DNAP1 variant (protein)
chain: B1 chain with A679T, N695Q
B25: Y296K: TP-DNAP1 variant (protein)
chain: B1 chain with Y296K, A679T
B26: R692V: TP-DNAP1 variant (protein)
chain: B1 chain with A679T, R692V
B27: T679Q: TP-DNAP1 variant (protein)
chain: B1 chain with A679Q
B28: E298G: TP-DNAP1 variant (protein)
chain: B1 chain with E298G, A679T
B29: N681F: TP-DNAP1 variant (protein)
chain: B1 chain with A679T, N681F
B30: N683A: TP-DNAP1 variant (protein)
chain: B1 chain with A679T, N683A
B31: N695H: TP-DNAP1 variant (protein)
chain: B1 chain with A679T, N695H
B32: N695E: TP-DNAP1 variant (protein)
chain: B1 chain with A679T, N695E
B33: T698A: TP-DNAP1 variant (protein)
chain: B1 chain with A679T, T698A
B34: N683H: TP-DNAP1 variant (protein)
chain: B1 chain with A679T, N683H
B35: N683T: TP-DNAP1 variant (protein)
chain: B1 chain with A679T, N683T
B36: N687G: TP-DNAP1 variant (protein)
chain: B1 chain with A679T, N687G
B37: R682P: TP-DNAP1 variant (protein)
chain: B1 chain with A679T, R682P
B38: R692F, T706E: TP-DNAP1 variant (protein)
chain: B1 chain with A679T, R692F, T706E
B39: K696C: TP-DNAP1 variant (protein)
chain: B1 chain with A679T, K696C

These molecules were tested on p1 (assay: p1 copy number by p1-encoded mKate2 fluorescence). Conditions: OR-Y24, measured in triplicate.
Type: cell-based, S. cerevisiae
In short: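 p1 copy number came from mKate2 fluorescence of saturated OR-Y24 cultures (triplicates, regrown from 1:10,000), read by flow cytometry and converted through a linear curve calibrated by qPCR (LEU2 against genomic LEU3). For small-scale tests, OD600-normalized plate-reader fluorescence (588/633 nm) was scaled to a w.t. TP-DNAP1 control.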
With B1 the “Mean fold-increase over w.t. (p1 copy number)” value (“Mean fold-increase” below) was 1.82 fold.
In the case of B2, the “Mean fold-increase” value is reported as 2.12 fold.
In the case of B3, the “Mean fold-increase” value is reported as 1.54 fold.
For B4, the “Mean fold-increase” value was 1.69 fold.
In the case of B5, the “Mean fold-increase” value is reported as 1.97 fold.
With B6 the “Mean fold-increase” value was 1.78 fold.
B7 was tested, and the “Mean fold-increase” value was 1.82 fold.
In the case of B8, the “Mean fold-increase” value is reported as 2.22 fold.
In the case of B9, the “Mean fold-increase” value is reported as 2.6 fold.
With B10 the “Mean fold-increase” value was 1.99 fold.
For B11, the “Mean fold-increase” value was 1.88 fold.
In the case of B12, the “Mean fold-increase” value is reported as 1.86 fold.
For B13, the “Mean fold-increase” value was 1.92 fold.
For B14, the “Mean fold-increase” value was 1.74 fold.
In the case of B15, the “Mean fold-increase” value is reported as 1.74 fold.
For B16, the “Mean fold-increase” value was 1.71 fold.
In the case of B17, the “Mean fold-increase” value is reported as 2.6 fold.
In the case of B18, the “Mean fold-increase” value is reported as 2.09 fold.
With B19 the “Mean fold-increase” value was 1.73 fold.
For B20, the “Mean fold-increase” value was 2.11 fold.
With B21 the “Mean fold-increase” value was 1.7 fold.
With B22 the “Mean fold-increase” value was 1.44 fold.
B23 was tested, and the “Mean fold-increase” value was 1.49 fold.
For B24, the “Mean fold-increase” value was 1.68 fold.
For B25, the “Mean fold-increase” value was 2.28 fold.
In the case of B26, the “Mean fold-increase” value is reported as 2.29 fold.
With B27 the “Mean fold-increase” value was 1.71 fold.
In the case of B28, the “Mean fold-increase” value is reported as 2.64 fold.
With B29 the “Mean fold-increase” value was 1.75 fold.
For B30, the “Mean fold-increase” value was 1.93 fold.
For B31, the “Mean fold-increase” value was 1.76 fold.
With B32 the “Mean fold-increase” value was 2.34 fold.
With B33 the “Mean fold-increase” value was 2.02 fold.
With B34 the “Mean fold-increase” value was 1.68 fold.
In the case of B35, the “Mean fold-increase” value is reported as 1.57 fold.
B36 was tested, and the “Mean fold-increase” value was 1.65 fold.
In the case of B37, the “Mean fold-increase” value is reported as 1.75 fold.
For B38, the “Mean fold-increase” value was 1.89 fold.
For B39, the “Mean fold-increase” value was 1.87 fold.
